Assay: soluble on expression in E. coli; label from the status in PepcDB or PDB records

| Sequence | soluble on expression in E. coli |
| --- | --- |
| MSTSTLQSEQSMEIITPPADIGTRTLVDKAAQFVSKKGLEFETKIIDSYPTDAKFNFLRSTADPCHTYYKHKLAEYSSQNQDGATDESDIKIFHAPPNVTTTAIVETTSCLVSQFGSEFEMMVKDSNTDDARFNFLKSSEDPYNVLYKQKLDEYSLDPRDAYYQHKLAESISKYHREATPKLVLPNLLQFRLVKEMTFEELDTVKVTAQFVAWYGDDFRGFLMERVMTEPQFEFMKATDYRFSFYNEFVVAYSQVLNPPKYLKDKLRGRAAYTVIGHLLITMSEEEIS | soluble |
| MSVAEFDADVIVDARDCIMGRVASQVAEQALDGETVAVVNAERAVITGREEQIVEKYEKRVDIGNDNGYFYPKRPDGIFKRTIRGMLPHKKQRGREAFESVRVYLGNPYDEDGEVLDGTSLDRLSNIKFVTLGEISETLGANKTW | soluble |
| MSVATATMPQQQNNFAQTLSQSSSTASAPAPTSAPVTTPAPGSRGAALFGGVFHRGFFSKPVERTEEENYRYLMALDR | not soluble |
| MSVAVATLHAAASGAVLRRRRTYIHPQQPAADVCPQACTRICPPPPLPHGLRVRGGHLVRYTACVPAHTGSMSASSTVSDRRVCIFFDCRVAGDGKGYEELRQTVYAQCSQLLTLSYLHYQRSGTTLSATVHLVTHTRVESFATPFCATSTDHPIDSGAAGVISGLRALAAAQPDHSVNACGAAIFGNRMESVLPHVQRALGGSQQRHQLILFCSSYVSHTEATQSLSGLCLDASPHQRLRCILVDWEAVCVTVGELASNVRVYRCSRSARQLQAAMQEILSLFLLPDVRSSRRLGLQLGLQAVPVIATISHYGAFLDGRDTIGSVVATDRASSAAAPMAGGVMHQRLAETNHRHNRANAASVVERDDRDPWSTLHLRAVLEADNIDESFLMGDTWTLALDTSAASTSTLTSSSAPSWPCTASTVALWHAFCNAFLGDALVFTGEETGIEAHRHAMQRHHHFVAYFMPDRTMRVREIVPPELRFVPLPAFPTREGLREQKAYTTEMQRLREQLVSHCACASFSLDALLSSGGHGAASTP | not soluble |
| MSVDTKIIGSFLQLTNYFAENYPAPCDLISSLTDLWFKQGGMIARMMSCDIQEFKSSDVFYEVLYRKIRVGNSLLADTLDPKMAAEGNLFEICKFYSLYLEHLRKDQSELLTIVLERLASQSDFNSTVILDMFTFFDKLYSEGNVGDWWDFLLGSEDASMVFKTPKKTNRPSNAFSTPTATAKRLPMYGSSTCRSPIAEVVDSPTMKYMRSDRELKTAKKKLVDMEHMVDELESENRNLTEKGRELKLIIDSLKSDVTNKRDTAKSSQQREQELSNILEEKEKESAQLLQQLEESRAALRDEQRHLEHQEAENGKIVEQLKTVSELNEKLTMQVKDLQDASENELASFRQKEKELIDELRMATNENVDLEELLKGVTNGKAGLQFENNCLVGKLEELSFVSDRNKQDADNARAQLEEEREKHRLATEKLHQENIDYMKTSDSRIEMILEESKTRKMMDESTIERLRLDLDNEKSYKKNLEDLLNDLNQRALNSEMANHLQKEGIQSVETYLQMAKKRIEHLELELSATNATIEFQSQQLDRAGNMLITEQEIRNQTSVQYKERTSALENQLSQKDAEIENLKRDLQQLVTKHESELKEQHEQLNVHHQSQQKLHSEAEKLRREHEALGKKNCFLGERCKIFVKDSRSGVMKRSTSSDSLAEFLSKGNDNETLEEMMRLIAQTPRKSVAFSFDLDEDETLKGTPIGFRTNLNETRESIASDEFFDRFPSTFPTRAAPRESVVSIGEPKNQFSPLGTSKDRVKTLTSRNEKVKPHLKSSYATEMGNVTSPSADEENVRKGKSKSIFAKLKGPRRDSFFFGKKKQAE | not soluble |
| MSVEEAALALWAKSGNPFHPLLAHMLDTAAVALAVLRMEPPRTRALYAEDWGLPEEGALAWAAALVGLHDLGKASPVFQAGWEEGKERVQRAGLPFGELLDWVAHGVFTELFLRRLLKEKGLPERAANDLAAALGAHHGFPANAEEKSRARRHLRTEDPLWKEARRWLLEEVFRRLGAPLPPSQGNGEARPEAVLRVMALASFADWVASDPSLFPYGRDPRRGDYLKEALRLAQEALNRLGWPAFAKAQRREFGELFPYIPKPNALQESVPALLEGACTPVLLLVEAPMGMGKTEAALYAHHLLQAGLGHRGLYVALPTQATANGLFPRVRGFLERLGEGSRLELQLQHGTALLNPHYAGLLERAAPRQVGEEEEGGAVASAWFSARKRAMLAPYGVGTLDQALLGVLRVKHHFVRLWGLMNRVVVLDEVHAYDVYTSGLLQALLRWLRALGSSAVVMTATLPPSRRRALLEAWAGEEVEGQDLGPYPRVVLVGEGVKARSLPPAREVEVALEVLREVDVEPLAQRLKGALPGAVGAIVNTVDRAQDLYRALGEGTPLTLEELARRLGGISGGQAWEEVRQALPERGGEVVGKVLTDGTLVFLLHARFPAEERALRGSVVLALFGKGGPRPPRAILVATQVAEQSLDLDFDLLYTDLAPIDLLFQRSGRLHRHERPRPEEHARPRLLLGVPEDLDFGKPLYWDKVYEDYVLLATWRALSGRDRLRVPGDLEALLEEIYEGENPESFPEGLRERAKKSLKALQERRDREANTARRLSLSELDRLLAYWDEGALVAQERLEDDEEKAETQRLLTRLGDPSVAVVPLFRVGEGLFLDREGRRRAPLKGEVSREEAEALFRRAVRLSRFPLPQELLKEEPPPAWRKSGLLRGLRPLEVGRVFRSGERAFQVELDPELGVVYLPV | soluble |
| MSVIQNIIGRIAVLRGGKYSVEVDVATDEGFGRFTSPIDDNPMLHIAEARRAVSEVDEIIGPELIGFDASEQELIDSYLWEIDGTEDFSHIGANTALAVSTAIAKAAANSRDMPLYSYIGGTFATELPVPVLSFAQDDMFDYYLVVKDLLEVTDIIDATNKIREIVKEINLENLSKASEDVGVELGLEVALGIGMKKEMDIEKVLNLVEDYNVAYIKPIGPPELFLELIAGTHGVFIDGEYLFRTNSVLDRRYYNALSIKPINLGTLTDLYNFVNDVKAEKITPILAEAKYEPADETFPHIALGLRCPAMLISWSSIEKINELNRIAEELGERGRIITFEE | soluble |
| MSVNSIYTDREEIDSEFEDEDFEKEGIATVERAMENNHDLDTALLELNTLRMSMNVTYHEVRIATITALLRRVYHFIATQTLGPKDAVVKVFNQWGLLFKRQAFDEEEYIDLMNIIMEKIVEQSFDKPDLILFSALVSLYDNDIIEEDVIYKWWDNVSTDPRYDEVKKLTVKWVEWLQNADEESSSEEE | soluble |
| MSVRATVVKRTISGGKGKISEYCDGTKAVFHYQALFPIEKHEKGQPLSLEKDAFKSIDDTRKPWPHGYGKPLEIVFGKKFQLPVFEQCLKTMLVDEISQFDVECIDLVQYPFVSKKLRDLVKPCDGKHSHAHTTHMCAASIAQGTGYEELDELMKNPRPLRFVFHLLQVFEPDQYVHDSWQLDEDDKLKSVEALRQKGNELFVQKDYKEAIDAYRDALTRLDTLILREKPGEPEWVELDRKNIPLYANMSQCYLNIGDLHEAEETSSEVLKREETNEKALFRRAKARIAAWKLDEAEEDLKLLLRNHPAAASVVAREMKIVTERRAEKKADSRVTYSKMFQP | not soluble |
| MSVSLEQTLGFRIKVTNVLDVVTEGRLYSFNSSNNTLTIQTTKKNQSPQNFKVIKCTFIKHLEVIGDKPSFNSFKKQQIKPSYVNVERVEKLLKESVIASKKKELLRGKGVSAEGQFIFDQIFKTIGDTKWVAKDIIILDDVKVQPPYKVEDIKVLHEGSNQSITLIQRIVERSWEQLEQDDGRKGG | soluble |
| MSVTVDDKDVSLNMIRPFEILTLPIPAGVAGKSLVWRFINDYGAISQPLKKNL | not soluble |
| MSWFISRKDIAYISRGAKLLGCGGGGDTKTTQRLLESIMKEDDQINVLQYEDLTEQVVATVCFAGSPILYEEQLPRGDEGQMVFQEYQLKTNKKIDAVISAEIGGMNALIPLVVALQTGCAVVDGDGMGRAFPEFTMTTFYMHGLPISPLILLTRDGKQHLIEGAANDRIVRDNRQLLNMHGGFGHFICCGADANVVKNMMVSGTLKLAYRLGRAMEQDQLSAAAGWTAVEDEWENSIYGKPTLLIKGTVESVVRTFDQEQIVGELTIIGKQRFIGTTLTVSFHNEFIAVKKEGQYLVMVPDLIIIVNAKTFLPYTTNEIQRGMSVLIYAIPAPNVLRQKQMIDHVGPQAYGLDVPYEPFFLEHHHHHH | not soluble |
| MSWLRTELWTAEVVYTGFGTPMLRGALAVQGGFVVGQGSLEELRARFPEGEVVHKGLALLPPPVNAHTHLDLSLLPLYRGPFAGFLSHVVAHRERRGLEGAKRGLEELLASGVGAFADIVFKDEVMDFLLQESPLPGVAFYEVFAPEPSLAEEVYRAVRRKVEAWRRREGKVKVGLSPHAPYSVSPPLLKRLAEWARAEGLPLMVHAAESPEEVAFLLRGEGPLREVYGRFAKTPWTPPGTTPVRHLHALGVLGPTTLLVHGVQVDEEEVGLLAETGTKVVLCPRSNRNLEVGEAPLALYAKHGVELALGTDSRGSSPDLDVKNEARFLWGRAEPRLLVRALTRGGYRALGLPTPRLTRGTPLSLVHFL | soluble |
| MTAATATANGNHSIEDPVVMKVQAASPIQETDFFENLYQMECFRTGEFYLKSGQMTPIYIDLRRIMSSPRVLRMAAQAMCEKIVASNLKFDYVVGVPYAALPLATLVSDILNVPMLMKRKEAKAYGTKQLIEGVYQPGGTVLLVEDVVTSGESIRETAEAIRNENLLVTDAIAVLDRQQGATANLAEDNLNFLSFLTMEKILDGLITKNEMTEERKHEIIAHLAKPF | soluble |
| MTADWVVTFTFDADPSMETMDAWETQLEGFDALVSRVPGHGIDVTVYAPGDWSVFDALAKMAGEVMPVVQAKSPIAVQIISEPEHRLRAEAFTTPELMSAAEIADELGVSRQRVHQLRSTAGFPAPLADLRGGAVWDAAAVRRFAETWERKPGRPHTGTAKFAYSWAVGPAVGRSGKAPNVRWRVENPDKIRFVLRNIGDDIAEDVEIDLSRIDAITRNVPKKTVIRPGEGLNMVLIAAWGHPLPNQLYVRWAGQDEWAAVPLHPAH | soluble |
| MTAFAAASPRAAVRTGFDGLAISVATRAMMKNLDQNFDAILITGPTASGKSALALRLARERNGVVINADSMQVYDTLRVLTARPSDHEMEGVPHRLYGHVPAGSAYSTGEWLRDISGLLSDLRGEGRFPVIVGGTGLYFKALTGGLSDMPAIPDDLREGLRARLIEEGAAKLHAELVSRDPSMAQMLQPGDGQRIVRALEVLEATGKSIRDFQRASGPMIIDPERAQKFIVLPERPVLHDRINRRFEAMMDSGAVEEVQALLALNLAPDATAMKAIGVAQIADMLTGRMGAAEVIEKSAAATRQYAKRQMTWFRNQMGDDWTRIQPAAALEHHHHHH | not soluble |
| MTAFVHTLSDGMELTVEIKRRAKKNLIIRPAGTHTIRISVPPCFSVSALNRWLYENEAVLRQTLAKTPPPQTAENRLPESILFHGRQLALTAHQDTQILLMPSEIRVPEGAPEKQLALLRDFLERQAHSYLIPRLERHARTTQLFPAPSSLTSAKTFWGVCRKTTGIRFNWRLVGAPEYVADYVCIHELCHLAHADHSRAFWALTRRFAPYTPEAKQWLKIHGRELFALGLEHHHHHH | not soluble |
| MTAGVTTGAFYKHFTSKEALFEEIIQPHINALINMYNEEFAKYLLNLENIDIEKSWRENFNELDPFINYIFENKRIFDLVLFQSAGTKYQDIVEKITSFVTKKTVCCLDKLKTIGMINQNLVFNEEEIHFYIYSFYATFYDILKHSYSKEKTMLLTRRLYQFSVPGWIELLS | not soluble |
| MTAHPQEDHYKYKKVISIGVVSELTGLSQRQIRYYEERKLVFPDRSRGIRKYSFADVEQLMKIANQREEGVSTWEIRQEMTKELRERMLKGQMNAHFRRRS | not soluble |
| MTAIAPVITIDGPSGAGKGTLCKAMAEALQWHLLDSGAIYRVLALAALHHHVDVASEDALVPLASHLDVRFVSTNGNLEVILEGEDVSGEIRTQEVANAASQVAAFPRVREALLRRQRAFRELPGLIADGRDMGTVVFPDAPVKIFLDASSEERAHRRMLQLQEKGFSVNFERLLAEIKERDDRDRNRAVAPLVPAADALVLDSTTLSIEQVIEKALQYARQKLALA | soluble |

— the DeepSol protein solubility set
